Measurements from paper PMC7409301, “Natural Killer Cell Activation Receptor NKp30 Oligomerization Depends on Its N-Glycosylation” (Cancers, 2020).
Values joined by “and” are separate entries in the source; they are usually repeats but may differ in a detail not shown here. Equal values may be shown once.

Assays:
[1] = target: B7-H6 (Homo sapiens) (UniProt Q68D85); conditions: cited from earlier work
[2] = target: NKp30_Stalk, wild-type N-glycosylation (expressed in HEK293T) (human) (UniProt O14931); assay: AUC; sedimentation velocity of glycosylated and deglycosylated NKp30_Stalk oligomers, 20 μM, 20 °C, 10 mM HEPES pH 7.5, 150 mM NaCl, 10 mM NaN3, 36,000 or 48,000 rpm
[3] = target: NKp30_Stalk, uniform simple N-glycans (expressed in HEK293S GnTI^−) (human) (UniProt O14931); assay: SPR; NKp30_Stalk monomer; conditions: domain or fragment
[4] = target: NKp30_LBD (Ligand Binding Domain), glycosylation state not told in the text for the experiment (human) (UniProt O14931); assay: AUC; NKp30_LBD at high concentration, 20 mg/mL, 50,000 rpm, 3 mm centerpiece, interference optics, nonideal c(s) model
[5] = target: B7-H6 C212S extracellular portion, glycosylation state not told in the text for the experiment (UniProt Q68D85); assay: SPR; as a7 but analyte is the oligomeric fraction of NKp30_Stalk; increase in affinity put down to the avidity of the oligomers
[6] = target: B7-H6 C212S extracellular portion, glycosylation state not told in the text for the experiment (UniProt Q68D85); assay: SPR; Biacore T200; biotinylated B7-H6 on streptavidin sensor; analyte NKp30_LBD, deglycosylated NKp30_Stalk or the monomeric fraction of NKp30_Stalk, 1 nM to 16.3 μM, single cycle kinetics; 10 mM HEPES pH 7.5, 150 mM NaCl, 1 mg/mL dextran, 0.05% Tween-20; steady-state responses fitted with AB hetero-association model
[7] = target: B7-H6 C212S extracellular portion, uniform simple N-glycans (expressed in HEK293S GnTI^−) (UniProt Q68D85); assay: SPR; NKp30_Stalk monomer; conditions: domain or fragment
[8] = target: B7-H6 C212S extracellular portion, wild-type N-glycosylation (expressed in HEK293T) (UniProt Q68D85); assay: ITC; NKp30_Stalk monomer; conditions: domain or fragment
[9] = target: B7-H6 C212S extracellular portion, wild-type N-glycosylation (expressed in HEK293T) (UniProt Q68D85); assay: ITC; NKp30_Stalk oligomer; conditions: domain or fragment
[10] = target: B7-H6 C212S extracellular portion, uniform simple N-glycans (expressed in HEK293S GnTI^−) (UniProt Q68D85); assay: SPR; NKp30_Stalk oligomer; conditions: domain or fragment
[11] = target: B7-H6 C212S extracellular portion, wild-type N-glycosylation (expressed in HEK293T) (UniProt Q68D85); assay: ITC; NKp30_Stalk monomer; conditions: domain or fragment; remark: listed apart in the source
[12] = target: B7-H6 C212S extracellular portion, uniform simple N-glycans (expressed in HEK293S GnTI^−) (UniProt Q68D85); assay: SPR; conditions: domain or fragment
[13] = target: NKp30_Stalk, deglycosylated with endoglycosidase Endo F1 (human) (UniProt O14931); assay: SPR; conditions: domain or fragment
[14] = target: NKp30_Stalk, wild-type N-glycosylation (expressed in HEK293T) (human) (UniProt O14931); assay: SPR; NKp30_Stalk monomer; conditions: domain or fragment
[15] = target: NKp30_Stalk, uniform simple N-glycans (expressed in HEK293S GnTI^−) (human) (UniProt O14931); assay: SPR; NKp30_Stalk monomer; conditions: domain or fragment; remark: listed apart in the source
[16] = target: NKp30_Stalk, uniform simple N-glycans (expressed in HEK293S GnTI^−) (human) (UniProt O14931); assay: SPR; NKp30_Stalk oligomer; conditions: domain or fragment
[17] = target: NKp30_Stalk, wild-type N-glycosylation (expressed in HEK293T) (human) (UniProt O14931); assay: SPR; NKp30_Stalk oligomer; conditions: domain or fragment
[18] = sedimentation velocity AUC; conditions: glycan changed form; control: NKp30_Stalk from HEK293S GnTI− (uniform glycans)
[19] = target: NKp30_Stalk, wild-type N-glycosylation (expressed in HEK293T) (human) (UniProt O14931); assay: ITC; as a9 but the oligomeric fraction of NKp30_Stalk in the cell
[20] = target: NKp30_Stalk, glycosylated, type of N-glycans not told in the text for the experiment (human) (UniProt O14931); assay: AUC; sedimentation velocity of the monomeric fraction of glycosylated NKp30_Stalk, of B7-H6 and of their equimolar mixture, 20 μM, 20 °C, HEPES buffer
[21] = target: NKp30_Stalk, wild-type N-glycosylation (expressed in HEK293T) (human) (UniProt O14931); assay: AUC; sedimentation velocity of the oligomeric fraction of NKp30_Stalk (HEK293T) with ATTO488-labelled B7-H6, read at 280 nm (total) and 480 nm (B7-H6 only), 20 °C
[22] = solubility during deglycosylation in HEPES buffer; conditions: glycan lost; control: glycosylated B7-H6 (HEK293S GnTI−)
[23] = target: T1, B7-H6 C212S extracellular portion, wild-type N-glycosylation (expressed in HEK293T) (UniProt Q68D85 25-245, C212S, complex wild-type N-glycans (HEK293T); biotinylated with EZ-Link NHS-Biotin for SPR); assay: ITC
T1 sequence: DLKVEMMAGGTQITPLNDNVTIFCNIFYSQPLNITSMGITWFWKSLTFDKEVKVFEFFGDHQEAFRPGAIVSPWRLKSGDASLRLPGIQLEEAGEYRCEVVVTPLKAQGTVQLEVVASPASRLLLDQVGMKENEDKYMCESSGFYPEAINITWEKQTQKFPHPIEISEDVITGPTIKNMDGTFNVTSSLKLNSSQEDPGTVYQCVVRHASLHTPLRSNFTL

[24] = target: T2, B7-H6 C212S extracellular portion, uniform simple N-glycans (expressed in HEK293S GnTI^−) (UniProt Q68D85 25-245, C212S, uniform Asn-GlcNAc2Man5 N-glycans; biotinylated with EZ-Link NHS-Biotin for SPR; labelled with ATTO 488-NHS ester for the two-wavelength sedimentation analysis); assay: SPR
T2 sequence: T1 sequence

For NKp30 (from UniProt O14931), the Kd [1] is listed as 1000 nM.

With “NKp30_Stalk, wild-type N-glycosylation (expressed in HEK293T) (from UniProt O14931 19-135) (domain or fragment)” the stoichiometry N [2] was 8 units and 16 units.

For “B7-H6 C212S extracellular portion, wild-type N-glycosylation (expressed in HEK293T) (from UniProt Q68D85 25-245)”, the Kd [3] was 370 nM.

For “NKp30_LBD (Ligand Binding Domain), glycosylation state not told in the text for the experiment (from UniProt O14931 19-130) (domain or fragment)”, the stoichiometry N [4] was 2.

In the case of “NKp30_Stalk, glycosylated, type of N-glycans not told in the text for the experiment (from UniProt O14931 19-135) (domain or fragment)”, the fold stronger binding than NKp30 LBD [5] is reported as 10 fold, the fold stronger binding than the NKp30 Stalk monomeric fraction [5] is reported as 4 fold and the fold higher affinity than NKp30 LBD [6] is reported as 2 fold.

Work on “B7-H6 C212S extracellular portion, deglycosylated with endoglycosidase Endo F1 (from UniProt Q68D85 25-245)” yielded a Kd [3] of 380 nM.

“NKp30_Stalk, wild-type N-glycosylation (expressed in HEK293T) (from UniProt O14931 19-135)” showed a Kd [7] of 380 nM, a Kd [8] of 590 nM and a Kd [9] of 830 nM. The Kd [10] was 90 nM.

“NKp30_Stalk, uniform simple N-glycans (expressed in HEK293S GnTI^−) (from UniProt O14931 19-135)” showed a Kd [7] of 370 nM, a Kd [8] of 970 nM and a Kd [11] of 960 nM. For the same molecule, the Kd [9] was 1000 nM and the Kd [10] was 70 nM.

“NKp30_Stalk, deglycosylated with endoglycosidase Endo F1 (from UniProt O14931 19-135)” gave a Kd [12] of 350 nM.

Molecule “B7-H6 C212S extracellular portion, uniform simple N-glycans (expressed in HEK293S GnTI^−) (from UniProt Q68D85 25-245)” has a Kd [13] of 350 nM, a Kd [3] of 350 nM and a Kd [14] of 380 nM. For the same molecule, the Kd [15] was 370 nM, the Kd [16] was 70 nM and the Kd [17] was 90 nM.

B1: NKp30: HEK293T wild-type glycosylation (protein)
parent chain: MAWMLLLILIMVHPGSCALWVSQPPEIRTLEGSSAFLPCSFNASQGRLAIGSVTWFRDEVVPGKEVRNGTPEFRGRLAPLASSRFLHDHQAELHIRDVRGHDASIYVCRVEVLGLGVGTGNGTRLVVEKEHPQLGAGTVLLLRAGFYAVSFLSVAVGSTVYYQGKCLTWKGPRRQLPAVVPAPLPPPCGSSAHLLPPVPGG
For B1, the oligomerisation [18] was “changes, one dominant species of ca 8 units and with secondary species of ca 16 units”.

B2: B7-H6 C212S extracellular portion, glycosylation state not told in the text for the experiment (domain or fragment)
chain: T1 sequence
modifications: glycosylation state marked only in the figures; biotinylated with EZ-Link NHS-Biotin for SPR
Work on B2 yielded a percent of NKp30 Stalk T oligomers accessible [19] of 60 to 70% and a stoichiometry N [20] of 1.

B3: B7-H6 C212S extracellular portion, uniform simple N-glycans (expressed in HEK293S GnTI^−) (domain or fragment)
chain: T1 sequence
modifications: uniform Asn-GlcNAc2Man5 N-glycans; biotinylated with EZ-Link NHS-Biotin for SPR; labelled with ATTO 488-NHS ester for the two-wavelength sedimentation analysis
B3 showed a percent of NKp30 binding sites occupied by B7-H6 in the oligomers [21] of 60% and a stoichiometry N ([21]; scale: B7-H6 molecules per eight NKp30 molecules) of 5.

B4: B7-H6: Endo F1 (protein)
parent chain: MTWRAAASTCAALLILLWALTTEGDLKVEMMAGGTQITPLNDNVTIFCNIFYSQPLNITSMGITWFWKSLTFDKEVKVFEFFGDHQEAFRPGAIVSPWRLKSGDASLRLPGIQLEEAGEYRCEVVVTPLKAQGTVQLEVVASPASRLLLDQVGMKENEDKYMCESSGFYPEAINITWEKQTQKFPHPIEISEDVITGPTIKNMDGTFNVTSCLKLNSSQEDPGTVYQCVVRHASLHTPLRSNFTLTAARHSLSETEKTDNFSIHWWPISFIGVGLVLLIVLIPWKKICNKSSSAYTPLKCILKHWNSFDTQTLKKEHLIFFCTRAWPSYQLQDGEAWPPEGSVNINTIQQLDVFCRQEGKWSEVPYVQAFFALRDNPDLCQCCRIDPALLTVTSGKSIDDNSTKSEKQTPREHSDAVPDAPILPVSPIWEPPPATTSTTPVLSSQPPTLLLPLQ
For B4, the stability_or_folding [22] was “decreases”.

B5: NKp30_LBD (Ligand Binding Domain), uniform simple N-glycans (expressed in HEK293S GnTI^−) (domain or fragment)
chain: LWVSQPPEIRTLEGSSAFLPCSFNASQGRLAIGSVTWFRDEVVPGKEVRNGTPEFRGRLAPLASSRFLHDHQAELHIRDVRGHDASIYVCRVEVLGLGVGTGNGTRLVVEKE
modifications: uniform Asn-GlcNAc2Man5 N-glycans; GlcNAc modelled at Asn42 in the crystal structure
Work on B5 yielded a Kd [23] of 890 nM and a Kd [24] of 1010 nM.

B6: NKp30_LBD (Ligand Binding Domain), wild-type N-glycosylation (expressed in HEK293T) (domain or fragment)
chain: B5 chain
modifications: complex wild-type N-glycans (HEK293T)
Work on B6 yielded a Kd [23] of 770 nM and a Kd [24] of 910 nM.

B7: NKp30_LBD (Ligand Binding Domain), deglycosylated with endoglycosidase Endo F1 (domain or fragment)
chain: B5 chain
modifications: a single GlcNAc unit left at each N-glycosylation site after Endo F1
B7 showed a Kd [23] of 550 nM and a Kd [24] of 690 nM.
